In IntAct's records for PubMed 19118202:

B1: P-selectin (Homo sapiens), P16109 (parent)
chain: MANCQIAILYQRFQRVVFGISQLLCFSALISELTNQKEVAAWTYHYSTKAYSWNISRKYCQNRYTDLVAIQNKNEIDYLNKVLPYYSSYYWIGIRKNNKTWTWVGTKKALTNEAENWADNEPNNKRNNEDCVEIYIKSPSAPGKWNDEHCLKKKHALCYTASCQDMSCSKQGECLETIGNYTCSCYPGFYGPECEYVRECGELELPQHVLMNCSHPLGNFSFNSQCSFHCTDGYQVNGPSKLECLASGIWTNKPPQCLAAQCPPLKIPERGNMTCLHSAKAFQHQSSCSFSCEEGFALVGPEVVQCTASGVWTAPAPVCKAVQCQHLEAPSEGTMDCVHPLTAFAYGSSCKFECQPGYRVRGLDMLRCIDSGHWSAPLPTCEAISCEPLESPVHGSMDCSPSLRAFQYDTNCSFRCAEGFMLRGADIVRCDNLGQWTAPAPVCQALQCQDLPVPNEARVNCSHPFGAFRYQSVCSFTCNEGLLLVGASVLQCLATGNWNSVPPECQAIPCTPLLSPQNGTMTCVQPLGSSSYKSTCQFICDEGYSLSGPERLDCTRSGRWTDSPPMCEAIKCPELFAPEQGSLDCSDTRGEFNVGSTCHFSCDNGFKLEGPNNVECTTSGRWSATPPTCKGIASLPTPGVQCPALTTPGQGTMYCRHHPGTFGFNTTCYFGCNAGFTLIGDSTLSCRPSGQWTAVTPACRAVKCSELHVNKPIAMNCSNLWGNFSYGSICSFHCLEGQLLNGSAQTACQENGHWSTTVPTCQAGPLTIQEALTYFGGAVASTIGLIMGGTLLALLRKRFRQKDDGKCPLNPHSHLGTYGVFTNAAFDPSP
partner: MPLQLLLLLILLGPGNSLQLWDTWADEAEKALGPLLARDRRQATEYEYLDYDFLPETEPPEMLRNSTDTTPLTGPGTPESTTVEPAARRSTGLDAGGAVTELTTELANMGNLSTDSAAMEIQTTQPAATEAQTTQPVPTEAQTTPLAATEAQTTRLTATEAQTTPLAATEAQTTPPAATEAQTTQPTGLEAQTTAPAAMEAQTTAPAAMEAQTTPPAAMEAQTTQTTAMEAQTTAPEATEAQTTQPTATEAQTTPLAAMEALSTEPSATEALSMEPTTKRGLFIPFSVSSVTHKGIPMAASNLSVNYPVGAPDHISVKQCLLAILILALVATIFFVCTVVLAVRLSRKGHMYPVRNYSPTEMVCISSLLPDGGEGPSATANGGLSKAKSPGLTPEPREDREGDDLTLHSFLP

Variants of: B1
Conditions: with selpl_human SELPLG

| effect of a mutation on the interaction | Variant |
| --- | --- |
| increasing interaction | A69H |
